# T1: His-tagged Pf41 (Plasmodium falciparum, UniProt Q8I1Y0 21-368)
# T1 construct: Pf41, 6-cysteine protein of Plasmodium falciparum, residues K21-S368 (domains D1 and D2); The form loaded on Ni-NTA sensors for BLI; a TEV site stands between the His8 tag and Pf41; also called immobilized Pf41; source: Sf21 insect cells (baculovirus), purified following the protocol of Pf12p with some modifications; not shown: His8, N-terminal, kept
# T1 sequence: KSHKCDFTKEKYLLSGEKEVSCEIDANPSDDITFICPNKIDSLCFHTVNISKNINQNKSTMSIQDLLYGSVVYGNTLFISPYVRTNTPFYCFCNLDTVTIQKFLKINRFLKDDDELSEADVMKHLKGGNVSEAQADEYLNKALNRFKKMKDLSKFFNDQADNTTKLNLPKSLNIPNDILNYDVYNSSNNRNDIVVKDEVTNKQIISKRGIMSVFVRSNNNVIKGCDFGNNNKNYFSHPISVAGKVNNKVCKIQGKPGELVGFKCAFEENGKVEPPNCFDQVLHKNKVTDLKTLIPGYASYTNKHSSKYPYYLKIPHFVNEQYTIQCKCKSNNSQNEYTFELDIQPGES
# B1: Pf12p D1D2 (domain or fragment)
# chain: NGVCDFSSEGLSLLPEEKLDFSVSRNVDKLSDENNVRHCVHFSKGFEYLRFICPMRKDNYEGIEIRPVECFEYIHIEGREHKLSEILKGSLYEKSINDNIMTRDVFIPPTIYEDMFFECTCDNSLTFKNNMIGIRGIMKIHLKKNILYGCDFDHDEKLMKNKTAFTNFYDKQKILPLIGNNNNDDDNNDDDNNNDNNNNDNNNNNNNNNNNNNNNNNNNITCNVTIKKSQVYLGIICPDGYTLYPNDCFKNVIYDNNIIIPLKKIIPHDILYHQDKNKRITFASFTLNINENPPGFTCYCIKDQTNINNPLIVNFHFS
# B2: nanobody H7 (VHH)
# VHH: QVQLQESGGGLVQAGGSLRLSCAASGRTSSSYAVAWFRQAPGKERQFVATIGYDGVTSYYEDSVEGRFTISRDNAKSMVYLQMNSLKPEDTAVYYCGRDRVPGHTWLARPSQADFGSWGQGTQVTVSS
# notes: From a phage library (pMES4 phagemid) of an alpaca immunized with Pf12p D1D2; source: E. coli WK6, periplasmic extract, purified (HisTrap, SEC)
# B3: nanobody B2 (VHH)
# VHH: QVQLQESGGGLVQPGGSLRLSCAASGSAFSRVAMGWYRQAPGKLREYVADITRGGTTDYADSVKGRFTISRDNAKNTIYLQMDSLKPEDTAVYYCNLVPPIRGGYWGQGTQVTVSS
# notes: as for B2
# B4: nanobody C12 (VHH)
# VHH: QVQLQESGGGLVQPGGSLRLSCAASGSAFSRVAMGWYRQAPGKLREYVADITRGGTTDYADSVKGRFTISRDNAKNTVFLQMDSLKPEDTAVYYCNSVPPIRGGYWGQGTQVTVSS
# notes: as for B2
# B5: nanobody F7 (VHH)
# VHH: QVQLQESGGGLVQPGGSLRLSCAASGSAFSRVAMGWYRQAPGKLREYVADITYGGATDYADSVKGRFTISRDNAKNTIYLQMDSLKPEDTAVYYCNLVPPIGGYWGQGTQVTVSS
# notes: as for B2
# B6: nanobody A10 (VHH)
# VHH: QVQLQESGGGLVQPGGSLRLSCAASGIIFSSNTMGWYRQAPGKQRELVASFSGETGANYADSVKGRFIIRRDNAKNAVYLLMNSLKPDDTAAYYCHADRFGTDYWGQGTQVTVSS
# notes: as for B2
# B7: nanobody B9 (VHH)
# VHH: QVQLQESGGGLVQAGGSLRLSCTASGRTFSNTVMGWFRQAPGKEREFLAHILWSGGLAYYADSVKGRFTISRDNAKNIVYLQMNSLKPEDTAVYYCAARDFGFGNNYDYWGQGTQVTVSS
# notes: From a phage library (pMES4 phagemid) of an alpaca immunized with Pf12p D1D2; also called Nb B9; source: E. coli WK6, periplasmic extract, purified (HisTrap, SEC)
# B8: nanobody B12 (VHH)
# VHH: QVQLQESGGGLVQAGGSLRLSCAASGRTFSSLTMGWFRQAPGKEREFVAGNAWNWSDGTTYYADSVRGRFTISRDNAKKTVYLQMNSLKPEDTAVYYCACAGDRPRVRVPVNSNDYDYWGQGTQVTVSS
# notes: as for B2
# B9: nanobody C4 (VHH)
# VHH: QVQLQESGGGLVQPGESLRLSCAASTSIFTVYTMGWYRQAPGKLREWVADVTVGDNRDYVDSVKGRFTISRDNATNTVYLQMNNVKPEDTAVYYCNRVPPGPSGSWGQGTQVTVSS
# notes: as for B2
# B10: nanobody D9 (VHH)
# VHH: QVQLQESGGGLVQPGGSLRLSCAASGIIFSSHVMGWYRQAPGKQRELVASFSGDTGAKYADSVKGRFIIRRENAKNMVTLYLQMNSLKPEDTAAYYCHVDRFGTEYWGQGTQVTVSS
# notes: as for B2
# B11: nanobody G6 (VHH)
# VHH: QVQLQESGGGLVQPGGSLRLSCEVSGSIFSIDAMAWYRQAPGKQRELVAAILSGGSTNYADSVKGRFAISRDNAKNTGYLQMNSLKPEDTAVYYCNAEGRVSGWGPTEYDYWGQGTQVTVSS
# notes: as for B2
# B12: Pf12 D1D2 (domain or fragment, Plasmodium falciparum, UniProt C6KSX0 28-304, looked up)
# chain: NLTCDFNDVYKLEFHPNQQTSVTKLCNLTPNVLEKVTIKCGSDKLNYNLYPPTCFEEVYASRNMMHLKKIKEFVIGSSMFMRRSLTPNKINEVSFRIPPNMMPEKPIYCFCENKKTITINGSNGNPSSKKDIINRGIVEIIIPSLNEKVKGCDFTTSESTIFSKGYSINEISNKSSNNQQDIVCTVKAHANDLIGFKCPSNYSVEPHDCFVSAFNLSGKNENLENKLKLTNIIMDHYNNTFYSRLPSLISDNWKFFCVCSKDNEKKLVFTVEASISS
# notes: Pf12, 6-cysteine protein of Plasmodium falciparum, residues N28-S304 (domains D1 and D2); Called untagged for the BLI; also called untagged Pf12 D1D2; recombinant Pf12; source: Sf21 insect cells (baculovirus), purified following the protocol of Pf12p with some modifications; not shown: His8, N-terminal, cleaved
# How the values were obtained:
# [1] = target: Nine out of 10 nanobodies (alpaca); assay: BLI; Octet RED96e; nanobodies (5 ug/ml) loaded on Ni-NTA sensors; untagged Pf12p D1D2 6-200 nM in solution (13-400 nM for A10); PBS pH 7.4, 0.1% BSA, 0.05% Tween-20, 25 C; global 1:1 fit; mean of three experiments
# Pf12p D1D2 [2] = target: T2, Pf12p D1D2 (Plasmodium falciparum, UniProt C6KSX1); assay: ELISA; MaxiSorp wells coated with 65 nM recombinant protein (Pf12p D1D2, Pf12p D2, Pf12 or Pf41) in PBS; 65 nM nanobody, 1 h at RT; bound nanobody detected with mouse anti-His and HRP-conjugated anti-mouse; duplicates; conditions: both partners purified
# T2 construct: also called recombinant Pf12p; untagged Pf12p D1D2; source: Sf21 insect cells (baculovirus, secreted), purified (Ni-NTA, TEV cleavage, SEC); not shown: His8, N-terminal, cleaved
# Pf41 D1D2 = target: T3, Pf41 D1D2 (Plasmodium falciparum, UniProt Q8I1Y0); assay: as above; conditions: both partners purified
# T3 construct: Pf41, 6-cysteine protein of Plasmodium falciparum, residues K21-S368 (domains D1 and D2); The Pf41 of the ELISA and of the SEC study; also called recombinant Pf41; source: Sf21 insect cells (baculovirus), purified following the protocol of Pf12p with some modifications
# Pf12 D1D2 = target: T4, Pf12 D1D2 (Plasmodium falciparum, UniProt C6KSX0); assay: as above; conditions: both partners purified
# T4 construct: Pf12, 6-cysteine protein of Plasmodium falciparum, residues N28-S304 (domains D1 and D2); Called untagged for the BLI; also called untagged Pf12 D1D2; recombinant Pf12; source: Sf21 insect cells (baculovirus), purified following the protocol of Pf12p with some modifications; not shown: His8, N-terminal, cleaved
# Pf12p D2 = target: T5, Pf12p D2 (Plasmodium falciparum (3D7 entry …, UniProt C6KSX1)); assay: as above; conditions: both partners purified
# T5 construct: Pf12p, 6-cysteine protein of Plasmodium falciparum, amino acids N168-S341: the C-terminal domain D2 only; Same vector and protocol as Pf12p D1D2; source: Sf21 insect cells (baculovirus, secreted), purified (Ni-NTA, TEV cleavage, SEC); not shown: His8, N-terminal, cleaved
# Pf12p D1D2 [3] = target: T2, Pf12p D1D2; assay: far-Western, overlay or dot blot; purified Pf12p D1D2 run on 4-12% Bis-Tris SDS-PAGE under reduced and non-reduced conditions, blotted on PVDF, probed with 0.5 ug/ml nanobody, detected with HRP-conjugated goat anti-llama IgG; conditions: both partners purified
# Pf12p D1D2 [4] = target: T2, Pf12p D1D2; assay: BLI; Octet RED96e; nanobodies (5 ug/ml) loaded on Ni-NTA sensors; untagged Pf12p D1D2 6-200 nM in solution (13-400 nM for A10); PBS pH 7.4, 0.1% BSA, 0.05% Tween-20, 25 C; global 1:1 fit; mean of three experiments; conditions: both partners purified
# His-tagged Pf41 = target: T1, His-tagged Pf41; assay: BLI; His-tagged Pf41 (10 or 20 ug/ml) loaded on Ni-NTA sensors; untagged Pf12 D1D2 or untagged Pf12p D1D2 in solution, 16-500 nM or 31-1000 nM; PBS pH 7.4, 0.1% BSA, 0.05% Tween-20, 25 C; 1:1 fit; conditions: both partners purified
Binder,binding result (Pf41 D1D2),binding result (Pf12 D1D2),binding result (Pf12p D2),binding result (Pf12p D1D2 [4]),other results
B1,–,–,–,–,Kd [1]: 3 nM; kon [1]: 100000 M⁻¹ s⁻¹
B2,no binding (tested: 65 nM),no binding (tested: 65 nM),binds,–,binding result (Pf12p D1D2 [2]): binds
B3,no binding (tested: 65 nM),no binding (tested: 65 nM),binds,–,binding result (Pf12p D1D2 [3]): binds
B4,no binding (tested: 65 nM),no binding (tested: 65 nM),binds,–,binding result (Pf12p D1D2 [3]): binds
B5,no binding (tested: 65 nM),no binding (tested: 65 nM),binds,–,binding result (Pf12p D1D2 [3]): binds
B6,no binding (tested: 65 nM),no binding (tested: 65 nM),–,–,Kd (Pf12p D1D2 [4]): ~105 nM
B7,no binding (tested: 65 nM),no binding (tested: 65 nM),binds,binds,–
B8,no binding (tested: 65 nM),no binding (tested: 65 nM),–,binds,–
B9,no binding (tested: 65 nM),no binding (tested: 65 nM),binds,binds,–
B10,no binding (tested: 65 nM),no binding (tested: 65 nM),–,binds,–
B11,no binding (tested: 65 nM),no binding (tested: 65 nM),binds,binds,–
B12,–,–,–,–,Kd (His-tagged Pf41): 144 ± 22.6 nM

# From paper PMC7886318, “Nanobody generation and structural characterization of Plasmodium falciparum 6-cysteine protein Pf12p” (Biochemical Journal, 2021)
